Experimental data from PMC4428384, “Differences in conformational dynamics within the Hsp90 chaperone family reveal mechanistic insights” (Frontiers in Molecular Biosciences, 2014).

How the values were obtained:
[1] = target: the molecule itself; assay: FRET or BRET; subunit exchange as in a1, in the presence of ADP
[2] = target: the molecule itself; assay: FRET or BRET; subunit exchange, dimer to monomers: ATTO 488 and ATTO 550 labeled proteins combined (400 nM each), rapidly mixed 1:1 with unlabeled protein (20 μM) in a stopped-flow device, 480 nm excitation, 590 nm cut-off filter; no nucleotide (apo)
[3] = target: the molecule itself; assay: FRET or BRET; subunit exchange as in a1, in the presence of ATP

B1: hHsp90β-E20C,C366A,C412T,C521A,C564T,C589A,C590A, labeled with ATTO 488 or ATTO 550 (natural protein)
chain: not shown
modifications: ATTO 488 maleimide or ATTO 550 maleimide on the single cysteine (E20C)
notes: human Hsp90β; single cysteine variant with the natural cysteines replaced; Homodimeric protein; the rows are protomer with protomer
[1]
  subunit exchange rate: 0.016 s⁻¹
[2]
  subunit exchange rate: 0.016 s⁻¹
[3]
  subunit exchange rate: 0.01 s⁻¹
